Experimental data from the supplement of paper PMC12667976.
± gives the standard error.

B1: library; numbered along this chain (parent)
chain: MATDAALRRLLRLHRTEIAVAVDSAFPLLHALADHDVVPEDKFQETLHLKEKEGCPQAFHALLSWLLTQDSTAILDFWRVLFKDYNLERYGRLQPILDSFPKDVDLSQPRKGRKPPAVPKALVPPPRLPTKRKASEEARAAAPAALTPRGTASPGSQLKAKPPKKPESSAEQQRLPLGNGIQTMSASVQRAVAMSSGDVPGARGAVEGILIQQVFESGGSKKCIQVGGEFYTPSKFEDSGSGKNKARSSSGPKPLVRAKGAQGAAPGGGEARLGQQGSVPAPLALPSDPQLHQKNEDECAVCRDGGELICCDGCPRAFHLACLSPPLREIPSGTWRCSSCLQATVQEVQPRAEEPRPQEPPVETPLPPGLRSAGEEVRGPPGEPLAGMDTTLVYKHLPAPPSAAPLPGLDSSALHPLLCVGPEGQQNLAPGARCGVCGDGTDVLRCTHCAAAFHWRCHFPAGTSRPGTGLRCRSCSGDVTPAPVEGVLAPSPARLAPGPAKDDTASHEPALHRDDLESLLSEHTFDGILQWAIQSMARPAAPFPS

Variants of: B1
Assay: AIRE transcriptional activation functional score (insulin promoter-GFP; nonsense median 0, synonymous median 1) (normalised score); higher = higher AIRE activity (more reporter activation)
Details: with insulin promoter-GFP reporter in HEK293
Method: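 Deep mutational scan of full-length human AIRE (codon-optimized cDNA, DT-POPCode NNN libraries over three regions) integrated at a Bxb1 landing pad in HEK293 cells carrying an insulin core promoter-GFP reporter at a Flp-In site. Cells were sorted for the top 10% GFP about 14 days after transfection. Variant frequency log-ratios (select vs non-select, TileSeq) were rescaled so that the nonsense median is 0 and the synonymous median is 1, then averaged over biological replicates.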

| Variant | AIRE transcriptional activation functional score |
| --- | --- |
| G387K | 0.344 ± 0.13 |
| L366M | 0.554 ± 0.07 |
| A404C | 0.451 ± 0.097 |
| A404Q | 0.81 ± 0.25 |
| C314T | 1.14 ± 0.34 |
| A138N | 0.5 ± 0.94 |
| K243D | 0.0348 ± 0.23 |
| A33E | 0.898 ± 0.21 |
| R190C | 0.414 ± 0.13 |
| S195L | 0.116 ± 0.12 |
| W531C | 0.138 ± 0.2 |
| W531R | -0.126 ± 0.31 |
| P95Q | 1.61 ± 0.48 |
| P95G | 1.01 ± 0.66 |
| R9H | 0.195 ± 0.13 |
| F318D | 1.02 ± 0.18 |
| H14N | 1.68 ± 0.1 |
| K114N | 0.632 ± 0.21 |
| F215G | 0.391 ± 0.16 |
| F215M | 0.136 ± 0.083 |
| E171T | 1.52 ± 0.65 |
| F82Q | 0.378 ± 0.069 |
| C310H | 0.624 ± 0.2 |
| C310Y | 0.993 ± 0.13 |

| Variant | AIRE transcriptional activation functional score |
| --- | --- |
| C310F | 0.908 ± 0.13 |
| M184Q | 0.653 ± 0.15 |
| K395N | 0.081 ± 0.31 |
| K395V | 1.34 ± 0.17 |
| N244T | 1.14 ± 0.11 |
| P129G | 0.951 ± 0.62 |
| P129D | 0.0133 ± 0.42 |
| G424E | 0.64 ± 0.24 |
| P360Q | 0.786 ± 0.22 |
| P166T | 1.36 ± 0.56 |
| A540T | 0.867 ± 0.26 |
| A540Y | 0.912 ± 0.12 |
| H396D | 0.156 ± 0.53 |
| A352F | 1.38 ± 0.045 |
| G208F | -0.178 ± 0.25 |
| G208E | 0.502 ± 0.1 |
| A25H | -1.85 ± 0.26 |
| A25W | -0.59 ± 0.39 |
| E485H | 0.537 ± 0.11 |
| E485I | 1.1 ± 0.23 |
| Q225M | -0.00432 ± 0.073 |
| V22R | 0.528 ± 0.83 |
| Y90G | -0.388 ± 0.57 |
| A140H | 1.37 ± 0.089 |

| Variant | AIRE transcriptional activation functional score |
| --- | --- |
| A258S | 0.657 ± 0.26 |
| A258C | 1.18 ± 0.19 |
| R356M | 1.16 ± 0.041 |
| G155N | 0.154 ± 0.25 |
| G155V | 0.534 ± 0.28 |
| G469W | 1.08 ± 0.024 |
| D503F | 0.724 ± 0.23 |
| W335A | 1.3 ± 0.48 |
| F459T | 0.589 ± 0.29 |
| K294N | 0.937 ± 0.093 |
| G269V | 1.05 ± 0.17 |
| G269M | 0.571 ± 0.041 |
| V199H | 0.599 ± 0.63 |
| L67E | -0.592 ± 0.38 |
| H458V | 0.655 ± 0.29 |
| G218H | 1.03 ± 0.086 |
| E359F | 1.18 ± 0.14 |
| S287N | 1.13 ± 0.33 |
| S278W | 1.19 ± 0.12 |
| V377S | 0.916 ± 0.21 |
| V377T | 1.37 ± 0.17 |
| V377E | 1.81 ± 0.17 |
| P56K | 1.48 ± 0.16 |
| P125T | 1.42 ± 0.28 |

| Variant | AIRE transcriptional activation functional score |
| --- | --- |
| Q182I | -0.398 ± 0.24 |
| G54Q | -0.474 ± 0.064 |
| E45G | 0.0251 ± 0.41 |
| Q346D | 1.46 ± 0.052 |
| H507E | 0.521 ± 0.096 |
| Q342V | 0.754 ± 0.23 |
| L414F | 1.41 ± 0.075 |
| D502V | 0.937 ± 0.079 |
| D502L | 0.916 ± 0.31 |
| P101V | -1.95 ± 0.24 |
| V188R | 0.52 ± 0.24 |
| R433G | 0.748 ± 0.22 |
| P365A | 1.05 ± 0.15 |
| D76V | 0.795 ± 0.29 |
| H60G | 0.0323 ± 0.62 |
| S324G | 1.01 ± 0.13 |
| H292P | 0.865 ± 0.43 |
| K131E | 0.0987 ± 0.29 |
| L29M | -0.19 ± 0.15 |
| L29Y | -0.0248 ± 0.12 |
| V20K | -0.579 ± 0.17 |
| V20G | -0.208 ± 0.36 |
| P143Q | 1.33 ± 0.33 |
| L428H | 1.48 ± 0.099 |

| Variant | AIRE transcriptional activation functional score |
| --- | --- |
| L428E | 0.885 ± 0.37 |
| L428Q | 1.01 ± 0.025 |
| Q425L | 1.18 ± 0.11 |
| R465P | 0.829 ± 0.13 |
| R465M | 0.403 ± 0.26 |
| E53D | 0.593 ± 0.21 |
| K50N | 1.59 ± 0.23 |
| Q276I | 1.83 ± 0.08 |
| Q276V | 0.873 ± 0.11 |
| A142E | 1.17 ± 0.28 |
| Y394I | 0.972 ± 0.15 |
| H415Q | 0.783 ± 0.33 |
| G333N | 0.719 ± 0.62 |
| G333Y | 1.26 ± 0.36 |
| G305L | 1.31 ± 0.4 |
| G486S | 1.16 ± 0.21 |
| G486T | 0.154 ± 0.23 |
| S153D | 0.728 ± 0.95 |
| H35F | 0.0268 ± 0.2 |
| D41L | 0.547 ± 0.53 |
| S332Q | 0.542 ± 0.11 |
| S332Y | 1.13 ± 0.22 |
| P326E | 0.653 ± 0.13 |
| P326S | 0.881 ± 0.29 |

| Variant | AIRE transcriptional activation functional score |
| --- | --- |
| P315N | 1.1 ± 0.036 |
| T344Y | 0.912 ± 0.1 |
| G477L | 0.273 ± 0.39 |
| G150Y | 2.21 ± 0.57 |
| G150T | 0.661 ± 0.51 |
| L28S | -0.39 ± 0.52 |
| C322S | 1.41 ± 0.17 |
| A261Q | 1.17 ± 0.33 |
| E354F | 1.33 ± 0.15 |
| D84G | 0.841 ± 0.47 |
| D84Y | 0.473 ± 0.34 |
| S464R | 0.955 ± 0.15 |
| P126D | 0.773 ± 0.063 |
| L63S | -0.272 ± 0.55 |
| G268R | 1.09 ± 0.32 |
| D478W | 0.544 ± 0.033 |
| A300T | 0.981 ± 0.46 |
| T334L | 1.12 ± 0.21 |
| T334A | 0.83 ± 0.38 |
| A160L | 0.749 ± 0.39 |
| P289Q | 0.942 ± 0.36 |
| P289K | 1.39 ± 0.21 |
| I528L | 0.543 ± 0.48 |
| P119E | 1.37 ± 0.17 |

| Variant | AIRE transcriptional activation functional score |
| --- | --- |
| S518I | 0.907 ± 0.25 |
| S518H | 0.981 ± 0.25 |
| S518Y | 1.3 ± 0.062 |
| S518G | 0.666 ± 0.1 |
| T68M | 0.985 ± 0.062 |
| Q57N | -0.0973 ± 0.88 |
| Q57S | 0.217 ± 0.41 |
| L158F | 1.27 ± 0.11 |
| E423S | 1.27 ± 0.33 |
| P405K | 1 ± 0.19 |
| S187F | -0.0306 ± 0.083 |
| S187P | 0.621 ± 0.26 |
| A134W | 0.124 ± 0.67 |
| R110N | 0.62 ± 0.23 |
| E296Y | 0.486 ± 0.15 |
| E296A | 0.699 ± 0.31 |
| G374R | 1.31 ± 0.35 |
| L93T | -0.0548 ± 0.35 |
| G228T | 1.57 ± 0.23 |
| N179R | 1.52 ± 0.74 |
| N179Q | -0.585 ± 0.21 |
| V301F | 1.29 ± 0.21 |
| V420K | 0.606 ± 0.23 |
